{"source": "patent US20250145691A1", "target": "Pangolin CoV S2-37 (Pangolin CoV)"}
{"binder": "Antibody SC45 Fab (Fab, V domains shown) VH: QVQLQESGPGLVKSSETLSLTCTVSGGSISSYYWSWIRQPPGKGLEWIGCIYSSGSTNYNPSLKSRVTISVDSSKNQFSLRLNSVTAADTAVYYCARHKGTDFWSGYSFTPRGGWFDPWGQGALVSVSS VL: DIQMTQSPSSLSASVGDRVTITCRASQSISSYLNWYQQKPGKAPKLLIYGASNLQSGVPSRFSGSGSETDFTLTISSLQPEDFASYYCQQSHSIPVTFGQGTKLEIK", "values": [{"measurement": "koff", "value": 0.000923, "unit": "s⁻¹"}, {"measurement": "kon", "value": 32100, "unit": "M⁻¹ s⁻¹"}]}
